Assay results reported in PMC3273627.
Read-outs that look alike come from different tables or passages of the source.

How the values were obtained:
[1] = target: actin filaments (UniProt P68135); assay: co-sedimentation
[2] = target: Actin (Oryctolagus cuniculus) (UniProt P68135); conditions: cited from earlier work
[3] = target: Actin (Oryctolagus cuniculus) (UniProt P68135); conditions: cited from earlier work; remark: listed apart in the source
[4] = target: actin filaments (UniProt P68135); assay: co-sedimentation; remark: listed apart in the source

Substance: DP260 isoform of dystrophin
- Kd [1]: 6.85 µM

Substance: Dystrophin (from UniProt P11531)
- Kd [2]: 0.3 µM

Substance: Dystrophin DysN-R17 (from UniProt P11531)
- Kd [3]: 0.76 µM

Substance: full-length dystrophin, P11531 1-3678
- Kd [1]: 0.11 µM
- Kd [4]: 0.152 µM
